B1: EV A114 (nucleic acid, listed as Enterovirus sp.)
chain: TGTGCGCCTGTTTTGAAACCCCCTCCCCCAACTCGAAACGTAGAAGTAATGTACACTACTGATCAGTAGCAGGCGTGGCGCACCAGCCATGTCTCGATCAAGCACTTCTGTTTCCCCGGACTGAGTATCAATAGACTGCTCACGCGGTTGAAGGTGAAAACGTCCGTTACCCGGCTAACTACTTCGAGAAACCTAGTAGCACCATAGAAACTGCAGAGTGTTTCGCTCAGCACTTCCCCCGTGTAGATCAGGTCGATGAGTCACTGCAATCCCCACGGGTGACCGTGGCAGTGGCTGCGTTGGCGGCCTGCCTATGGGGCAACCCATAGGACGCTCTAAGGTGGACATGGTGTGAAGAGTCTATTGAGCTAGTTAGTAGTCCTCCGGCCCCTGAATGCGGCTAATCCTAACTGTGGAGCGCATACTCCCAAACCAGGGAGCAGTGCGTCGTAACGGGCAACTCCGCAGCGGAACCGACTACTTTGGGTGTCCGTGTTTCCTTTTATTCCTATACTGGCTGCTTATGGTGACAATTGAGAGATTGTTACCATATAGCTATTGGATTGGCCATCCAGTGTGTAATAGAGCAATCATTTACCAATTTGTTGGATTTACTCCATTAACCCACACGTCTCTCAACACACTACATTTCATCTTACTACTGAACACTAGAAA
modifications: lipid formulation
B2: Ia Io (nucleic acid)
DNA: GGTGTCCGGGTGTGTGGGATAGACCCAGATGTGCAGTGGATGCGAGCATTTGAGTCAGAGTAGGAGCAAGCCCAGGGGCAAAGGGACCACATTGTGTATCCCGAATGAAGGATCGAGATTTCTCTCCTCATTACCCGGTGTCTTGTCACTGTTGGGGGGGCCCAACAGTCTTAGTCCTATACTGCCTGATAGGGTCGCGGCTGGCCGGACTCAAGTGCTATAGTCAGTTGATTTTCACTC
modifications: source: /note="Description of Unknown: Ia Io sequence"
B3: Taura Syndrome Virus: "an IRES is an IRES sequence of Taura syndrome virus" (nucleic acid)
DNA: CTTTAAAAGTCGTGCGTGGCTTCACCACGCACGATCAGTACTATCAGTTAACCACTCTTGAATATGCTCAATGACCCTATTCAACACTGGTGTCTCTTAGTACATTATTTTAGCACTTAACGTGCATGAGTTTTGCCCATTTCTTTCAAAAAAATGAGTATTCGAGGAGACGTCCCGCTCCCCGTCTTATTTCAACCGTAGACTCGACATCTATTGGTGGACATTTAATTCCAGTCGCCGTAAGTTGCTTCTGCCCCGCGCTATATTTTCTTATACTTATGGTTCTATAGGTCTGGTTTAAAACGTAAATAGACGGCCCACAAACTATAGAACGCGTACCCGGAACGCCAATCCCGGATAAGTCCCTGGATATATAGATGCACCGCAATATAAGCCTGCAGACTGTCTCATATACT
modifications: Taura Syndrome Virus
B4: Hunnivirus A2 (nucleic acid, listed as Hunnivirus sp.)
DNA: ACAGTTTTTGACAAGGACCCTCACCTGTCAATCGGGACCACCACTTTCAGTGACCCCGTGCGAAGTGTTGAGAGAAAGTGAGCTTTCTTACCCTTCATTTGTGAACCCTTCAGTCGAAGCCGCTTGGAATAAGATGGAAGGAAATGTTCATTCTAAATGGAGTGAAACATATACTTAATTTCCAGTGTTTAGTGGTCTTTCCACTAGACAACGGCACTGTCTTGCCGGAACTCTACACACCAACATTCCACGCTTGTGGGACTCAAATGTTGGATGACACAGTTGTAGCTGGAACTGAGTGTTTAGTGCACTCTGTGTAACAGTGAAAACAATGTGATCACTTCGGTGGGCTAGTAGCCTGTGGACTAACAACTGGTAACAGTTGCCTCAGGGGCCAAAAGCCACGGTGTTAACAGCACCCTACTAGTTTGATTGGAGCAATCCATGATGTTACAGAGTTAGTAACTGCCAAACAGATTGTACTGGTATCTTGGCATACCGTGCAACTTAGGATAGTGAAGGATGCCCTGGCGGTACCCATAGGTAACAAGTGACACTATGGATCTAAACAGGGGCTCACTCTACGTTGCTTTACAACTAGCTGTGAGTTAAAAAACGTCTAACTATCCACAACCTAGGGGACTAGGTTTTCCTTTTTATTTTTATACACAACTA
B5: Tottorivirus (nucleic acid, listed as Tottorivirus sp.)
DNA: CCCCTTTACGTAACTGCAACTTAAAGAGTACCCTACTGCATTGGATGTGTGGTAAACTTTTACGCACACATTTGTAGTAGTGTTAGTTATGTTCTACCTAATGAGTATGCATGCACCCGTCGAAACACGCTTGTGATAAGATAGGTGAGTCCATGTGACTAATCTCATTAAGATAAATAAGCACCCTACAACGCACGGCACGCTCGTGTCTTCCGTGCGGGGCCGGGACAACAGCGGCCTAAATCTTCTAGGTGACCACCATGCTTTTGGGACTATGGCACCACTGTGGACGTGAGTACCTGGCAGTAAGTCTGTGAAAAGATGGAAGGTGTCCCAAGCTATGGGGCGTATGCATATAGCCTGCGGAACAAACAACGGCGACGTTGTCCCCAGGGCCCAAAAGGCACGTGGATAAGATCCACCTATATGTTTACCCCATAGTGTAAGTCACTGGAAGTCCTAGTAATGGATGTCTGGAGTAAGGCTCACGGGGTAGGGCGAAGGATGCCCAGAAGGTACCCGTAGGTAACCTTAAGAGACTATGGATCTGATCTGGGGACCGGATGGCGCCATCACCATGACGTGGAGGCCGGTTTAAAAAACGTCTAAGCCCGACCAACAACCTAGGGGACTAGGTTTTCCTTTTTTATTCATGTATGACGTT
B6: TRV NGS910 (nucleic acid)
DNA: ATGCGACGTGGTTGGAGATTAAACCGACTCCGACGAAAGTGCTATCATGCCTCCCCGATTATGTGATGTTTTCTGCCCTGCTGGGCGGAGCATTCTCGGGTTGATACACCTTGAATCCTTCATCCTTGGACCTCAGGTCCCCCGGTCTAAGCCGCTTGGAATACGACAGGGTTATTTTCCAATCTTCTCCTTTCTACTTTCATGAGTCCTATTCATGAAAAGGGTCTGTGCTGCCCCTTCCTTCTTGGAGAATCTGCGCGGCGGTCTTTCCGTCTCTCGAAAAGCGCAGATGCAGCATGCTGGAACCGGTGAAGAAAACAGTTCTTTGTGGAAACTTAGAGCAGACATCGAAACAGCTGTAGTGACCTCACAGTAGCAGCGGAACCCCCTCCTGGTAACAGGAGCCTCTGCGGCCAAAAGCCCCGTGGATAAGATCCACTGCTGTGAGCGGTGCAACCCCAGCACCCTGGTTCGATGGTTGTTCTCTGTGGAACCAGAGAATGGTCTTTCTCAAGCCCTCCAGTAGAGAAGCCAAGAATGTCCTGAAGGTACCCCGCATGCGGGATCTGATCAGGAGACCAATCGTCAGTGCTTTACACTGGCGCTTTGGTTTAAAAACTGTCACAGCTTCTCCAAACCAAGTGGTCTTGGTTTTCACTTTTATCAAACTGTTTC
modifications: lipid formulation; source: /note="Description of Unknown: TRV NGS910 sequence"
B7: Hunnivirus A1 (nucleic acid, listed as Hunnivirus sp.)
DNA: TAACGTTTGGCAAGAACCCTCACCTGTCAATTGGGACCACCACTTTCAGTGACCCCATGCGAAGTAGTGAGAGAGAATAAGCTTTCTTACCCTTCATTTGTGAACCCTTCAGTCGAAGCCGCTTGGAATAAGATAGGAGGAAAAGTTCATTCTAAATGGAGTGAAACATGTACTTCAGAATTTCTAGCACGCGCTGGGCTTTCTTGCGTGTGACGGCACTGTCTTGCCGGAGCTCTCCACACTGACACCCCACGCTTGTGGACCTTGGTGGCAGATGACAACACTGCAGCTGGAATTGAGTGTCTGGTACACTCTGTGTAACAGTGAAAACAATGTGATCACTTCGGTGAGCTAGTAGCCTGTGGACCAACAACTGGTAACAGTTGCCTCAGGGGCCAAAAGCCACGGTGTTTACAGCACCCTACTGGTTTGATTGGAGCAATCCAAGATGTCACAGAGTTAGTAATTGCCAAGCAGTCCGTACTGGTATCTTGACATACCGTGCAGTTTTGGATAGTGAAGGATGCCCTGACGGTACCCATAGGTAACAAGTGACACTATGGATCTAAGCAGGGGCTCACTCTACGCTGCTTTACAGCTGGCTGTGAGTTAAAAAACGTCTAGCTATCCACAACCTAGGGGACTAGGTTTTCCTTTTATTTAGATTACAATTAT
B8: VHEV (nucleic acid)
DNA: AATTCCTTCTTCCTTTCTCCTTGGACCTCGGTCCCCCGGTCTAAGCCGCTCGGAATATGACAGGGTTATTTTCACCTCTTCTCTCTTCTACTTCATAGTGTTCTATACTATGAAAGGGTATGTGTCGCCCCTTCCTTCTTGGAGAACGTGCGTGGCGGTCTTTCCGTCTCTCGAAAAACGTGCGTGCGACATGCAGAGTAACGCAAAGAAAGCAGTTCTTGGTCTAGCTCTGGTGCCCACAAGAAAACAGCTGTAGCGACCACACAAAGGCAGCGGAAACCCCCTCCTGGTAACAGGAGCCTCTGCGGCCAAAAGCCACGTGGATAAGATCCACCTTTGTGTGCGGTGCAACCCCAGCACCCTGGTTTCTTGGTGACACCTTAGTGAACCCTCGAATGGCAATCTCAAGCGCCTCTGTAGGAAAGCCAAGAATGTCCAGGAGGTACCCCTTCCTCATGGAGGGATCTGACCTGGAGACACATCACACGTGCTATACACTTGTGCTTGTGTTTAAAAATTGTCACAGCTTTCCCAAACCAAGTGGTCTTGGTTTTCCCTTAACTTCGAAAAGTCACTATGGCCTGCAAACATGGATACCCAGACGTGTGCCCT
modifications: source: /note="Description of Unknown: VHEV sequence"
B9: GFTV (nucleic acid)
chain: ATGGGGAAGGGTATGACGTGCCCCTTCCTTCTTCGGAGAACTCGCTCTAGTGGTCTTTCCACTTCTGGAAAAGAGTGAGTGCACGTGATCAGGACCGTCGAAGACGACAAATACCTGGTGCTCTATCTCATAGACGTTTCACAGCTGTAGCGACCCCTCAGTAGCAGCGGAAGCCCCCTCCTGGTGACAGGAGCCTCTGCGGCCAAAAGCCACGTGGATAAGATCCACTGCTGAGGGCGGTGCGACCCTAGCACCCTGTGATGCATACTAGTTGTAGCGTGCCGGACTATTGGTCTGTCATAAGACACCTGATAGAGAGACCAAGAATGTCCTGGAGGTACCCCGCGTGCGGGATCTGACCAGGAGACCATTGCCCAATGCTTTACAACGGGTCTATGGTTTAAAAACTGTCGCAGTCTCTCCAAACCAAGTGGTCTTGGTTTTCAATTACTTTGAATATTTCACT
modifications: lipid formulation; source: /note="Description of Unknown: GFTV sequence"

Tested on: HEK293 cells
Type: cell-based, human
Conditions: circular RNA encoding Gluc with the listed IRES (UTR truncated to 675 nt) transfected into HEK293 cells; supernatant after 24 hours

| Molecule | Expression (luminescence from secreted Gluc protein) |
| --- | --- |
| B1 | 1.50E+08 |
| B2 | 1.35E+06 |
| B3 | 8.30E+05 |
| B4 | 6.38E+06 |
| B5 | 2.76E+07 |
| B6 | 3.84E+07 |
| B7 | 1.61E+06 |
| B8 | 1.74E+08 |
| B9 | 1.23E+06 |
